These results are taken from publication PMC8752480 (Journal of molecular biology, 2021).

First the molecules themselves.
B1: precursor of protein VIII (pVIII) of HAdV-C5 in the Ad5F35-ts1 virion (natural protein)
chain: MSKEIPTPYMWSYQPQMGLAAGAAQDYSTRINYMSAGPHMISRVNGIRAHRNRILLEQAAITTTPRNNLNPRSWPAALVYQESPAPTTVVLPRDAQAEVQMTNSGAQLAGGFRHRVRSPGQGITHLTIRGRGIQLNDESVSSSLGLRPDGTFQIGGAGRPSFTPRQAILTLQTSSSEPRSGGIGTLQFIEEFVPSVYFNPFSGPPGHYPDQFIPNFDAVKDSADGYD
B2: protein IX of HAdV-C5 in the Ad5F35-ts1 virion (natural protein)
chain: MSTNSFDGSIVSSYLTTRMPPWAGVRQNVMGSSIDGRPVLPANSTTLTYETVSGTPLETAASAAASAAAATARGIVTDFAFLSPLASSAASRSSARDDKLTALLAQLDSLTRELNVVSQQLLDLRQQVSALKASSPPNAV
B3: penton base of HAdV-C5 in the Ad5F35-ts1 virion (natural protein)
chain: MRRAAMYEEGPPPSYESVVSAAPVAAALGSPFDAPLDPPFVPPRYLRPTGGRNSIRYSELAPLFDTTRVYLVDNKSTDVASLNYQNDHSNFLTTVIQNNDYSPGEASTQTINLDDRSHWGGDLKTILHTNMPNVNEFMFTNKFKARVMVSRLPTKDNQVELKYEWVEFTLPEGNYSETMTIDLMNNAIVEHYLKVGRQNGVLESDIGVKFDTRNFRLGFDPVTGLVMPGVYTNEAFHPDIILLPGCGVDFTHSRLSNLLGIRKRQPFQEGFRITYDDLEGGNIPALLDVDAYQASLKDDTEQGGGGAGGSNSSGSGAEENSNAAAAAMQPVEDMNDHAIRGDTFATRAEEKRAEAEAAAEAAAPAAQPEVEKPQKKPVIKPLTEDSKKRSYNLISNDSTFTQYRSWYLAYNYGDPQTGIRSWTLLCTPDVTCGSEQVYWSLPDMMQDPVTFRSTRQISNFPVVGAELLPVHSKSFYNDQAVYSQLIRQFTSLTHVFNRFPENQILARPPAPTITTVSENVPALTDHGTLPLRNSIGGVQRVTITDARRRTCPYVYKALGIVSPRVLSSRTF
B4: precursor of protein IIIa (pIIIa) of HAdV-C5 in the Ad5F35-ts1 virion (natural protein)
chain: MMQDATDPAVRAALQSQPSGLNSTDDWRQVMDRIMSLTARNPDAFRQQPQANRLSAILEAVVPARANPTHEKVLAIVNALAENRAIRPDEAGLVYDALLQRVARYNSGNVQTNLDRLVGDVREAVAQRERAQQQGNLGSMVALNAFLSTQPANVPRGQEDYTNFVSALRLMVTETPQSEVYQSGPDYFFQTSRQGLQTVNLSQAFKNLQGLWGVRAPTGDRATVSSLLTPNSRLLLLLIAPFTDSGSVSRDTYLGHLLTLYREAIGQAHVDEHTFQEITSVSRALGQEDTGSLEATLNYLLTNRRQKIPSLHSLNSEEERILRYVQQSVSLNLMRDGVTPSVALDMTARNMEPGMYASNRPFINRLMDYLHRAAAVNPEYFTNAILNPHWLPPPGFYTGGFEVPEGNDGFLWDDIDDSVFSPQPQTLLELQQREQAEAALRKESFRRPSSLSDLGAAAPRSDASSPFPSLIGSLTSTRTTRPRLLGEEEYLNNSLLQPQREKNLPPAFPNNGIESLVDKMSRWKTYAQEHRDVPGPRPPTRRQRHDRQRGLVWEDDDSADDSSVLDLGGSGNPFAHLRPRLGRMF
B5: hexon (major capsid protein) of HAdV-C5 in the Ad5F35-ts1 virion (natural protein)
chain: MATPSMMPQWSYMHISGQDASEYLSPGLVQFARATETYFSLNNKFRNPTVAPTHDVTTDRSQRLTLRFIPVDREDTAYSYKARFTLAVGDNRVLDMASTYFDIRGVLDRGPTFKPYSGTAYNALAPKGAPNPCEWDEAATALEINLEEEDDDNEDEVDEQAEQQKTHVFGQAPYSGINITKEGIQIGVEGQTPKYADKTFQPEPQIGESQWYETEINHAAGRVLKKTTPMKPCYGSYAKPTNENGGQGILVKQQNGKLESQVEMQFFSTTEATAGNGDNLTPKVVLYSEDVDIETPDTHISYMPTIKEGNSRELMGQQSMPNRPNYIAFRDNFIGLMYYNSTGNMGVLAGQASQLNAVVDLQDRNTELSYQLLLDSIGDRTRYFSMWNQAVDSYDPDVRIIENHGTEDELPNYCFPLGGVINTETLTKVKPKTGQENGWEKDATEFSDKNEIRVGNNFAMEINLNANLWRNFLYSNIALYLPDKLKYSPSNVKISDNPNTYDYMNKRVVAPGLVDCYINLGARWSLDYMDNVNPFNHHRNAGLRYRSMLLGNGRYVPFHIQVPQKFFAIKNLLLLPGSYTYEWNFRKDVNMVLQSSLGNDLRVDGASIKFDSICLYATFFPMAHNTASTLEAMLRNDTNDQSFNDYLSAANMLYPIPANATNVPISIPSRNWAAFRGWAFTRLKTKETPSLGSGYDPYYTYSGSIPYLDGTFYLNHTFKKVAITFDSSVSWPGNDRLLTPNEFEIKRSVDGEGYNVAQCNMTKDWFLVQMLANYNIGYQGFYIPESYKDRMYSFFRNFQPMSRQVVDDTKYKDYQQVGILHQHNNSGFVGYLAPTMREGQAYPANFPYPLIGKTAVDSITQKKFLCDRTLWRIPFSSNFMSMGALTDLGQNLLYANSAHALDMTFEVDPMDEPTLLYVLFEVFDVVRVHRPHRGVIETVYLRTPFSAGNATT
B6: precursor of protein VI (pVI) of HAdV-C5 in the Ad5F35-ts1 virion (natural protein)
chain: MEDINFASLAPRHGSRPFMGNWQDIGTSNMSGGAFSWGSLWSGIKNFGSTVKNYGSKAWNSSTGQMLRDKLKEQNFQQKVVDGLASGISGVVDLANQAVQNKINSKLDPRPPVEEPPPAVETVSPEGRGEKRPRPDREETLVTQIDEPPSYEEALKQGLPTTRPIAPMATGVLGQHTPVTLDLPPPADTQQKPVLPGPTAVVVTRPSRASLRRAASGPRSLRPVASGNWQSTLNSIVGLGVQSLKRRRCF

In data set [1] the target is B5. Description: […].
Data set [2] concerns the molecule itself. The data set is described as follows: […].

In the case of B1, in data set [1], the binding result was “binds”.

Turning to B2, the binding result in data set [1] was “binds”. Regarding B3, the binding result in data set [1] and in data set [2] was “binds” in each case. As for B4, the binding result in data set [1] and in data set [2] was “binds” throughout. B5: the binding result in data set [2] is “binds”.

As for B6, the binding result in data set [1] is reported as “binds”.
